Values joined by “and” are separate entries in the source; they are usually repeats but may differ in a detail not shown here. Equal entries are not always repeated.
Experiments:
Assay in all cases: cell-based or functional assay
[1] = target: ecotropic receptor mCAT-1 (UniProt Q09143)
[2] = target: human polytropic/xenotropic receptor encoded by the human RMC1 locus (human) (UniProt Q9UBH6)
[3] = target: polytropic/xenotropic receptor encoded by the Rmc1 locus of the NIH Swiss inbred NFS/N mouse (mouse (NIH Swiss; NIH 3T3 cells)) (UniProt Q9Z0U0)
Sequence of polytropic/xenotropic receptor encoded by the Rmc1 locus of the NIH Swiss inbred NFS/N mouse (mouse (NIH Swiss; NIH 3T3 cells)) (Q9Z0U0 whole entry): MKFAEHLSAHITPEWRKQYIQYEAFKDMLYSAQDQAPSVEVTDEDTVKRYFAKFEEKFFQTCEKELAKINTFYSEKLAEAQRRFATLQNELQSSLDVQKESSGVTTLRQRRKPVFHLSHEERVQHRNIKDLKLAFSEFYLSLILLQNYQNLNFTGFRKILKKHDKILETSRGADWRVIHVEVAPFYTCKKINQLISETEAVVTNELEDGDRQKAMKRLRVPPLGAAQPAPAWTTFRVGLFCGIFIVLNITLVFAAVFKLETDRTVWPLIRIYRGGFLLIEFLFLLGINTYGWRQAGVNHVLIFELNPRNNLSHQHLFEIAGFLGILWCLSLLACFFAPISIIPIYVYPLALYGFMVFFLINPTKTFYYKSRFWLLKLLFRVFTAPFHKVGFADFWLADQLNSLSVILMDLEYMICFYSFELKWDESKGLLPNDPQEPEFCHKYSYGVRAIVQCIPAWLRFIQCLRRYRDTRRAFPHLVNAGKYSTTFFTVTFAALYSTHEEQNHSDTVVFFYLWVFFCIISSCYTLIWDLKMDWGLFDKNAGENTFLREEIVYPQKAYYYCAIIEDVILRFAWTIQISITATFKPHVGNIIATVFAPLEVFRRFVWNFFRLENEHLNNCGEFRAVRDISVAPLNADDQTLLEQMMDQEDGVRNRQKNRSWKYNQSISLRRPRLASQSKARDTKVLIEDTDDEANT

Sequence of ecotropic receptor mCAT-1 (Q09143 whole entry): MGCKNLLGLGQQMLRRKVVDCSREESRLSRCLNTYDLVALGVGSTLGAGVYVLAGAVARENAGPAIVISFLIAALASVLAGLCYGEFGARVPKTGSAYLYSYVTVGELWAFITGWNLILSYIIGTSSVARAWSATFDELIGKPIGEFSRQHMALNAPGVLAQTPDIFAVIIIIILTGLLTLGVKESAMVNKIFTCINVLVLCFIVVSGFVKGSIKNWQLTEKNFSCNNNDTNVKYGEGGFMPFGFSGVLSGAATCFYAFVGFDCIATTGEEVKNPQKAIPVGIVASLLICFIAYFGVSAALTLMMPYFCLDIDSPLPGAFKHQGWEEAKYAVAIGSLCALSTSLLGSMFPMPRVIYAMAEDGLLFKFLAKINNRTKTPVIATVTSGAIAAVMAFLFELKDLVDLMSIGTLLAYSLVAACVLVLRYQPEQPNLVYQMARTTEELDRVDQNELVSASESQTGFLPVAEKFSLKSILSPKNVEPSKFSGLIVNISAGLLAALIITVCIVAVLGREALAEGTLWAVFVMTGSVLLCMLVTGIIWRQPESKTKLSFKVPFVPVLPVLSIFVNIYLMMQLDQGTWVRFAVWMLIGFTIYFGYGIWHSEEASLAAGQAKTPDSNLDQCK
Sequence of human polytropic/xenotropic receptor encoded by the human RMC1 locus (human) (Q9UBH6 whole entry): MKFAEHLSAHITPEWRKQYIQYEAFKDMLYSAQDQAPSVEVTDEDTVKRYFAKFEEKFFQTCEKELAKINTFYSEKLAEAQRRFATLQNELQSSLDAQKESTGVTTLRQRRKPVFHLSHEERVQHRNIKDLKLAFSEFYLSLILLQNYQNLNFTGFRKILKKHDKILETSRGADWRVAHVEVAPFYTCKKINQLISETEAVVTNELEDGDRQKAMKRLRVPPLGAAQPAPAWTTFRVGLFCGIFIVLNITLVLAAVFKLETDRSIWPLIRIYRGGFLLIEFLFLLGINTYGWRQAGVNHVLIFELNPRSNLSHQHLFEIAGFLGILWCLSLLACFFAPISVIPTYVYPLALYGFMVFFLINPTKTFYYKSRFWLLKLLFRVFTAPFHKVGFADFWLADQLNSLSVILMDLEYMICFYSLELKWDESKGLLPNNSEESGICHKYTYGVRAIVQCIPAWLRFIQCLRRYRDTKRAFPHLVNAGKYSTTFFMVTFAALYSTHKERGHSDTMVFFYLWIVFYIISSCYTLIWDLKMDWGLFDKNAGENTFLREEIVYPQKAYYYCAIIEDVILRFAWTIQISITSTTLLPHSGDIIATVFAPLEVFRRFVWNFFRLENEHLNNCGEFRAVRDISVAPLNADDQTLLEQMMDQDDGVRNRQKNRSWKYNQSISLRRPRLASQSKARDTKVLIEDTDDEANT

Question: What does the source list for “Akv MLV envelope protein (ecotropic envelope) (from UniProt P03386 32-669)”?
Answer: fold lowering of titer on PSI-2 cells against NIH 3T3 cells [1]: 10000 fold; titer of mini-virus on HeLa mCAT cells [1]: 50000 cfu/mL and 30000 cfu/mL; titer of mini-virus on NIH3T3 cells [1]: 1.6e+06 cfu/mL and 800000 cfu/mL; titer of mini-virus on PSI-2 cells (ecotropic receptor blocked by ecotropic envelope) [1]: 170 cfu/mL and 120 cfu/mL

Question: Which results are given for “MCF 247 envelope protein (polytropic MLV MCF-247)”?
Answer: Titer on 293 cells [2]: 2400 c.f.u./ml; Titer on Human HeLa cells [2]: 2 c.f.u./ml; Titer on TE 671 cells transfected with MCF 247 (receptor blocked by MCF 247 envelope) [2]: 16 c.f.u./ml; titer on TE 671 (human) cells [2]: 150 c.f.u./ml; titer on NIH 3T3 (murine) cells [3]: 4.8e+06 c.f.u./ml

Question: With “S/M Leader (SL3-2 envelope with the signal peptide of MCF 247)” as the substance, how does the titer on HeLa cells [2] read?
Answer: 0 cfu/mL

Question: What about the titer on TE 671 cells [2] of the same substance?
Answer: 5 cfu/mL

Question: And the titer on NIH 3T3/MCF 247 cells (polytropic receptor blocked) [3]?
Answer: 12.5 cfu/mL

Question: What about the titer on NIH 3T3 cells [3] of the same substance?
Answer: 200000 cfu/mL

Question: And the titer on Psi-2 cells (ecotropic receptor blocked) [3]?
Answer: 100000 cfu/mL

Question: With “S/M VR3 (SL3-2 envelope with the VR3 region of MCF 247) (from UniProt P03388 33-640)” as the substance, how does the titer on HeLa cells [2] read?
Answer: 250 cfu/mL

Question: What about the titer on TE 671 cells [2] of the same substance?
Answer: 22500 cfu/mL

Question: And the titer on NIH 3T3/MCF 247 cells (polytropic receptor blocked) [3]?
Answer: 2.5 cfu/mL

Question: What about the titer on NIH 3T3 cells [3] of the same substance?
Answer: 500000 cfu/mL

Question: And the titer on Psi-2 cells (ecotropic receptor blocked) [3]?
Answer: 300000 cfu/mL

Question: With “S/M VRA (SL3-2 envelope with the VRA segment of MCF 247)” as the substance, how does the titer on HeLa cells [2] read?
Answer: 0 cfu/mL

Question: And the titer on TE 671 cells [2]?
Answer: 2.5 cfu/mL

Question: What about the titer on NIH 3T3/MCF 247 cells (polytropic receptor blocked) [3] of the same substance?
Answer: 2.5 cfu/mL

Question: What about the titer on NIH 3T3 cells [3] of the same substance?
Answer: 225000 cfu/mL

Question: What about the titer on Psi-2 cells (ecotropic receptor blocked) [3] of the same substance?
Answer: 400000 cfu/mL

Question: For “S/M VRB (SL3-2 envelope with the VRB segment of MCF 247)”, which titer on HeLa cells [2] is on record?
Answer: 0 cfu/mL

Question: And the titer on TE 671 cells [2]?
Answer: 5 cfu/mL

Question: What about the titer on NIH 3T3/MCF 247 cells (polytropic receptor blocked) [3] of the same substance?
Answer: 2.5 cfu/mL

Question: And the titer on NIH 3T3 cells [3]?
Answer: 3e+06 cfu/mL

Question: And the titer on Psi-2 cells (ecotropic receptor blocked) [3]?
Answer: 500000 cfu/mL

Question: Which titer on TE 671 (human) cells [2] does the source give for “SL3-2 envelope mutant CR (C at 212, R at 213) (from UniProt P03388 33-640)” here?
Answer: 12 c.f.u./ml

Question: What about the titer on NIH 3T3 (murine) cells [3] of the same substance?
Answer: 2.4e+06 c.f.u./ml

Question: With “SL3-2 envelope mutant GA (G at 212, A at 213) (from UniProt P03388 33-640)” as the substance, how does the titer on TE 671 (human) cells [2] read?
Answer: 2800 c.f.u./ml

Question: What about the titer on NIH 3T3 (murine) cells [3] of the same substance?
Answer: 5.6e+06 c.f.u./ml

Question: Which Titer (cfu/mL) on TE 671 cells [2] does the source give for “SL3-2 envelope mutant GI (G at 212, I at 213) (from UniProt P03388 33-640)” here?
Answer: 450000 cfu/mL

Question: What about the Titer on 293 cells [2] of the same substance?
Answer: 200000 c.f.u./ml

Question: What about the Titer on Human HeLa cells [2] of the same substance?
Answer: 130 c.f.u./ml

Question: What about the Titer on TE 671 cells transfected with MCF 247 (receptor blocked by MCF 247 envelope) [2] of the same substance?
Answer: 6000 c.f.u./ml

Question: And the fold decrease of titer on TE 671 cells expressing MCF 247 envelope [2]?
Answer: 100 fold

Question: What about the fold rise of titer on human cells against wild type SL3-2 [2] of the same substance?
Answer: 100000 fold

Question: What about the titer on TE 671 (human) cells [2] of the same substance?
Answer: 440000 c.f.u./ml

Question: And the Titer (cfu/mL) on NIH 3T3 cells [3]?
Answer: 2e+06 cfu/mL

Question: And the titer on NIH 3T3 (murine) cells [3]?
Answer: 7.6e+06 c.f.u./ml

Question: With “SL3-2 envelope mutant GK (G at 212, K at 213) (from UniProt P03388 33-640)” as the substance, how does the titer on TE 671 (human) cells [2] read?
Answer: 5600 c.f.u./ml

Question: And the titer on NIH 3T3 (murine) cells [3]?
Answer: 5.2e+06 c.f.u./ml

Question: What does the source list for “SL3-2 envelope mutant GT (G at 212, T at 213) (from UniProt P03388 33-640)”?
Answer: Titer (cfu/mL) on TE 671 cells [2]: 1500 cfu/mL; titer on TE 671 (human) cells [2]: 520 c.f.u./ml; Titer (cfu/mL) on NIH 3T3 cells [3]: 2e+06 cfu/mL; titer on NIH 3T3 (murine) cells [3]: 8.4e+06 c.f.u./ml

Question: How did the titer on TE 671 (human) cells [2] turn out when “SL3-2 envelope mutant GV (G at 212, V at 213) (from UniProt P03388 33-640)” was run?
Answer: 320000 c.f.u./ml

Question: And the titer on NIH 3T3 (murine) cells [3]?
Answer: 3.6e+06 c.f.u./ml

Question: For “SL3-2 envelope mutant LA (L at 212, A at 213) (from UniProt P03388 33-640)”, which titer on TE 671 (human) cells [2] is on record?
Answer: 5200 c.f.u./ml

Question: What about the titer on NIH 3T3 (murine) cells [3] of the same substance?
Answer: 1.1e+07 c.f.u./ml

Question: Which Titer on 293 cells [2] does the source give for “SL3-2 envelope mutant LI (L at 212, I at 213) (from UniProt P03388 33-640)” here?
Answer: 12000 c.f.u./ml

Question: And the Titer on TE 671 cells transfected with MCF 247 (receptor blocked by MCF 247 envelope) [2]?
Answer: 68 c.f.u./ml

Question: What about the fold decrease of titer on TE 671 cells expressing MCF 247 envelope [2] of the same substance?
Answer: 100 fold

Question: And the titer on TE 671 (human) cells [2]?
Answer: 1200 c.f.u./ml

Question: What about the titer on NIH 3T3 (murine) cells [3] of the same substance?
Answer: 2.4e+06 c.f.u./ml

Question: What does the source list for “SL3-2 envelope mutant LV (L at 212, V at 213) (from UniProt P03388 33-640)”?
Answer: titer on TE 671 (human) cells [2]: 16000 c.f.u./ml; titer on NIH 3T3 (murine) cells [3]: 3.6e+06 c.f.u./ml

Question: “SL3-2 envelope mutant MA (M at 212, A at 213) (from UniProt P03388 33-640)” was tested. Which titer on TE 671 (human) cells [2] did it give?
Answer: 250000 c.f.u./ml

Question: What about the titer on NIH 3T3 (murine) cells [3] of the same substance?
Answer: 9.6e+06 c.f.u./ml

Question: What does the source list for “SL3-2 envelope mutant MI (M at 212, I at 213) (from UniProt P03388 33-640)”?
Answer: titer on TE 671 (human) cells [2]: 28000 c.f.u./ml; titer on NIH 3T3 (murine) cells [3]: 240000 c.f.u./ml

Question: What does the source list for “SL3-2 envelope mutant MV (M at 212, V at 213) (from UniProt P03388 33-640)”?
Answer: Titer on 293 cells [2]: 240000 c.f.u./ml; Titer on Human HeLa cells [2]: 100 c.f.u./ml; Titer on TE 671 cells transfected with MCF 247 (receptor blocked by MCF 247 envelope) [2]: 16000 c.f.u./ml; fold decrease of titer on TE 671 cells expressing MCF 247 envelope [2]: 100 fold; fold rise of titer on human cells against the GI mutant [2]: > 10 fold; titer on TE 671 (human) cells [2]: 7.2e+06 c.f.u./ml; titer on NIH 3T3 (murine) cells [3]: 9.6e+06 c.f.u./ml

Question: With “SL3-2 envelope mutant RA (R at 212, A at 213) (from UniProt P03388 33-640)” as the substance, how does the titer on TE 671 (human) cells [2] read?
Answer: 4 c.f.u./ml

Question: What about the titer on NIH 3T3 (murine) cells [3] of the same substance?
Answer: 1e+07 c.f.u./ml

Question: How did the Titer (cfu/mL) on TE 671 cells [2] turn out when “SL3-2 envelope mutant RI (R at 212, I at 213) (from UniProt P03388 33-640)” was run?
Answer: 22.5 cfu/mL

Question: What about the titer on TE 671 (human) cells [2] of the same substance?
Answer: 24 c.f.u./ml

Question: And the Titer (cfu/mL) on NIH 3T3 cells [3]?
Answer: 3.25e+06 cfu/mL

Question: What about the titer on NIH 3T3 (murine) cells [3] of the same substance?
Answer: 6.4e+06 c.f.u./ml

Question: “SL3-2 envelope polypeptide (wild type envelope protein of Murine Leukaemia Virus SL3-2) (from UniProt P03388 33-640)” was tested. Which Titer (cfu/mL) on TE 671 cells [2] did it give?
Answer: 4.75 cfu/mL

Question: What about the Titer on 293 cells [2] of the same substance?
Answer: < 2 c.f.u./ml

Question: What about the Titer on Human HeLa cells [2] of the same substance?
Answer: < 2 c.f.u./ml

Question: And the titer on HeLa cells [2]?
Answer: 0 cfu/mL

Question: What about the titer on TE 671 (human) cells [2] of the same substance?
Answer: < 4 c.f.u./ml

Question: What about the titer on TE 671 cells [2] of the same substance?
Answer: < 2 c.f.u./ml

Source: patent publication US20060084791A1
